T1: human/mouse 5T4 chimera aa173-420 (human/mouse chimera, UniProt Q13641 32-420)
T1 chain: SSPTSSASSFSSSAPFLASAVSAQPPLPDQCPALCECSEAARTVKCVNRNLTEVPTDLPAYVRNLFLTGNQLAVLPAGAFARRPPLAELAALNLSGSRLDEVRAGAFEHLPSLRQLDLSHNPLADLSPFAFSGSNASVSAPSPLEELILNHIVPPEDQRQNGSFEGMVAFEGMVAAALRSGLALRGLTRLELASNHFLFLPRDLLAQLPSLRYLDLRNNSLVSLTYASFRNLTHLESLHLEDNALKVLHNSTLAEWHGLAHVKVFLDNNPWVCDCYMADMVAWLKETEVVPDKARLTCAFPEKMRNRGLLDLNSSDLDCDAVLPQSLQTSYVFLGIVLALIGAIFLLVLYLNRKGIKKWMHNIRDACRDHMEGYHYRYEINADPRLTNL

T2: 5T4 on the SPR chip (amine-coupled on Biacore; biotinylated on MASS-1) (UniProt Q13641 32-355, limits assumed, biotinylated in the MASS-1 assays)
T2 construct: also called biotinylated 5T4
T2 sequence (looked up): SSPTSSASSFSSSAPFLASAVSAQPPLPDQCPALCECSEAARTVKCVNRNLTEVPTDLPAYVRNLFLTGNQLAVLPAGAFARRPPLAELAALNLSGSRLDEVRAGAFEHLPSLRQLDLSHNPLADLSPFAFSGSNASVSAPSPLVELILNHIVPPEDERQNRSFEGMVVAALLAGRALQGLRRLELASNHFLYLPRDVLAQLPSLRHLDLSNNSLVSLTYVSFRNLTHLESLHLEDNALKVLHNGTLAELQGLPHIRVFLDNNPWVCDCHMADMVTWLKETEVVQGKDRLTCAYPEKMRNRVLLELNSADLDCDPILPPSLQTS

T3: 5T4-Fc (obtained from Peter L. Stern, University of Manchester) (human, UniProt Q13641 32-355)
T3 construct: also called h5T4-Fc; recombinant 5T4; not shown: Fc part not specified
T3 sequence (looked up): T2 sequence (looked up)

B1: 1206/1207 (antibody, V domains shown)
VH: EVQLLESGGGLVQPGGSLRLSCAASGFTFSGSSMSWVRQAPGKGLEWVSSIYYSGSGTYYADSVKGRFTISRDNSKNTLYLQMNSLRAEDTAVYYCARYGRNVHPYNLDYWGQGTLVTVSS
VL: DIQMTQSPSSLSASVGDRVTITCRASQSISSYLNWYQQKPGKAPKLLIYAASSLQSGVPSRFSGSGSGTDFTLTISSLQPEDFATYYCQQGYYYLPTFGQGTKLEIK
B2: 1212/1213 (antibody, V domains shown)
VH: EVQLLESGGGLVQPGGSLRLSCAASGFTFSSYAMSWVRQAPGKGLEWVSYISSYGGYTSYADSVKGRFTISRDNSKNTLYLQMNSLRAEDTAVYYCARYHSGVLDYWGQGTLVTVSS
VL: DIQMTQSPSSLSASVGDRVTITCRASQSISSYLNWYQQKPGKAPKLLIYAASSLQSGVPSRFSGSGSGTDFTLTISSLQPEDFATYYCQQYYYHYLLTFGQGTKLEIK
B3: 1626-1208 (bispecific antibody)
chain 1: not shown
chain 2: DIQMTQSPSSLSASVGDRVTITCRASQSISSYLNWYQQKPGKAPKLLIYAASSLQSGVPSRFSGSGSGTDFTLTISSLQPEDFATYYCQQGTGYGPLTFGQGTKLEIKRTVAAPSVFIFPPSDEQLKSGTASVVCLLNNFYPREAKVQWKVDNALQSGNSQESVTEQDSKDSTYSLSSTLTLSKADYEKHKVYACEVTHQGLSSPVTKSFNRGEC
B4: 1626-1210 (bispecific antibody)
heavy: not shown
light: B3 chain 2

Key:
[1] = biological target: T1, human/mouse 5T4 chimera aa173-420; test: flow cytometry, chimera-transfected cells
[2] = biological target: T2, 5T4 on the SPR chip (amine-coupled on …); test: SPR Biacore, 5T4 amine-coupled, mAb injected
Procedure: Binding kinetics of the 5T4-specific mAbs have been studied using two different SPR-based platforms, the Biacore 3000 (GE Healthcare) and the MASS-1 platform (Sierra Sensors). Briefly, 5T4 was captured at the sensor chip surface either via direct amine coupling (Biacore platform) or using a streptavidin coated chip and biotinylated 5T4 (MASS-1 platform). The different 5T4-specific mAbs were then injected over the chip in increasing concentrations and the association and dissociation rates studied in real time. A 1:1 Langmuir model was used for curve fitting.

[3] = biological target: T3, 5T4-Fc (obtained from Peter L. Stern, …); test: dual ELISA: coated 5T4-Fc, detection with CD137-bio
Procedure: Plates (#655074, Greiner Bio-One GmbH, Germany) were pre-coated with 0.5 μg/ml 5T4-Fc (obtained from Professor Peter Stern, University of Manchester) overnight. CD137-5T4 bsAb were diluted from 8 to 2×10⁻³ μg/ml in 1:4 dilutions and added in duplicates of 50 μl to each well. CD137-bio (Ancell #502-030) was used as detection antibody at 0.5 μg/ml and the binding was detected with Streptavidin-HRP (Pierce #21126). The ELISA was developed with SuperSignal ELISA PICO Chemiluminescent substrate (Thermo Scientific Pierce, Rockford, Ill. USA) during 2-10 minutes and read in an automated microplate based multi-detection reader (FLUOstar OPTIMA, Netherlands).

Binder | normalized % positive cells [1] | Kd [2] [nM] | koff [2] [s⁻¹] | EC50 [3] [nM]
B1 | 0.3 |  |  | 
B2 | -0.01 | 0.18 | 0.00081 | 
B3 |  |  |  | 1.91
B4 |  |  |  | 0.4

Reference: patent publication US20220213213A1 (published 2022)
